pEC50, pIC50, pKd: −log10 of the molar value.

One assay addresses T1, human PD-1/CD279 (Homo sapiens, UniProt Q15116).
T1 construct: purchased Biolegend #789406
Nature of the assay: PD-1 binding ELISA assay (Example 5). To be noted: biotinylated human PD-1. Here is the method:
(§1) The interaction of the unmodified antibodies and corresponding IL-18 immunocytokines with relevant immune cell associated antigen are measured by ELISA assay. For these studies, Corning high-binding half-area plates (Fisher Scientific, Reinach, Switzerland) are coated overnight at 4° C. with 25 μl of unmodified antibodies corresponding IL-18 immunocytokines at […] in PBS. […] Plate surfaces are blocked with 25 μl of PBS-0.02% Tween20-1% BSA at 37° C. during 1 h. […] ELISA signal is then measured at 450 nm on an ENSPIRE® plate reader from Perkin Elmer (Schwerzenbach, Switzerland).
A general note: An ELISA detects its analyte on a solid surface through an enzyme-linked reagent.

A further assay has as its target T2, human PD-L1/B7-H1 (Homo sapiens, UniProt Q9NZQ7).
T2 construct: purchased ACROBiosystems PD1-H82E5-25UG
The assay can be described thus: PD-L1 binding ELISA assay (Example 5). To be noted: biotinylated human PD-L1. Here is the method: as §1

Assay [1] concerns the target T3, human Fc gamma receptors I (FcγRI/CD64) (Homo sapiens, UniProt P12314).
T3 construct: purchased R&D systems 1257-FC-050
The assay can be described thus: Human FcγR binding ELISA, FcγRI/CD64 (Example 8). The following applies: ELISA binding affinity. On the procedure: (§2) The interaction of the unmodified and of conjugated antibodies with human Fc gamma receptors I (FcγRI/CD64), with human Fc gamma receptors IIa (FcγRIIa/CD32a), with inhibitory human Fc gamma receptors IIb (FcγRIIb/CD32b), and with human Fc gamma receptors III FcγRIIIa/CD16 were measured by ELISA.
(§3) Briefly, Corning high-binding half-area plates (Fisher Scientific, Reinach, Switzerland) were coated overnight at 4° C. with 25 μl of unmodified and of conjugated anti-PD1 antibodies at 2.5 μg/ml in PBS. […] Plates surfaces were blocked with 25 μl of PBS-0.02% Tween20-1% BSA at 37° C. during 1 h. […] Twenty-five microliters of a 1/500 HRP-anti-His antibody in PBS—0.02% Tween20—0.1% BSA (R&D systems, anti-HIS—HRP Ab, #MAB050H) were added to each well and plates were incubated at Room Temperature during 1 h. […] ELISA signal was then measured at 450 nm on an EnSpire plate reader from Perkin Elmer (Schwerzenbach, Switzerland).

In assay [2] the target is T4, human Fc gamma receptors IIa (FcγRIIa/CD32a) (Homo sapiens, UniProt P12318).
T4 construct: purchased R&D systems 9595-CD-050
T4 sequence (P12318 34-317): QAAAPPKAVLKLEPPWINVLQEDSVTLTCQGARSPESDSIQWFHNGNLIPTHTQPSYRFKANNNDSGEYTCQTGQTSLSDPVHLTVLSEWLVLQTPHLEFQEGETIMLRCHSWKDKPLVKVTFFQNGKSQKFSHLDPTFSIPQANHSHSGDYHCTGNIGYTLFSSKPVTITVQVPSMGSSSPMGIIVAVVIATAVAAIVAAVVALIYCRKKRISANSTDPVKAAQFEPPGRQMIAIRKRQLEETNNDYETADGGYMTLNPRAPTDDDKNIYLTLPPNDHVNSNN
Nature of the assay: Human FcγR binding ELISA, FcγRIIa/CD32a (Example 8). To be noted: ELISA binding affinity. Here is the method:
as §2, §3

In assay [3] the target is T5, human Fc gamma receptors IIb (FcγRIIb/CD32b) (Homo sapiens, UniProt P31994).
T5 construct: purchased R&D systems AVI1875-050
T5 sequence (P31994 43-310): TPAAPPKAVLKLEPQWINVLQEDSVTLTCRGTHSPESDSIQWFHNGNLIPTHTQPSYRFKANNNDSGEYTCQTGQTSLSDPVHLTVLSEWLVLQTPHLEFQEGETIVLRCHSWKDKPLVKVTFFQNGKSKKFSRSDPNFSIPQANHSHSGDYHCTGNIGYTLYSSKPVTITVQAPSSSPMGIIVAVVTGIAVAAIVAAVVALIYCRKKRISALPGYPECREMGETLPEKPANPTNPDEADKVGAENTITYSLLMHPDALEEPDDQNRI
The assay can be described thus: Human FcγR binding ELISA, FcγRIIb/CD32b (Example 8). The following applies: ELISA binding affinity. Here is the method:
as §2, §3

Assay [4] addresses T6, human Fc gamma receptors III FcγRIIIa/CD16 (Homo sapiens, UniProt P08637).
T6 construct: purchased R&D systems 4325-FC-050
Nature of the assay: Human FcγR binding ELISA, FcγRIIIa/CD16 (Example 8). The following applies: ELISA binding affinity. Here is the method:
as §2, §3

Assay [5] addresses T7, human neonatal Fc receptor (FcRn) (Homo sapiens, UniProt P55899).
T7 construct: purchased Perkin Elmer AL3095C
The assay can be described thus: Human FcRn binding AlphaLISA at pH 6 (Example 9). On the procedure: The interaction of the unmodified and of conjugated anti-PD1 antibodies with the human neonatal Fc receptor (FcRn) at pH 6 was measured using the AlphaLISA® Human FcRn Binding Kit (AL3095C) from Perkin Elmer (Schwerzenbach, Switzerland). […] When reference IgG binds to FcRn, donor and acceptor beads come into proximity enabling the transfer of singlet oxygen that trigger a cascade of energy transfer reactions in the acceptor beads, resulting in a sharp peak of light emission at 615 nm. Addition of a free IgG antibodies into the AlphaLISA® mixture creates a competition for the binding of FcRn to the reference antibody resulting in a loss of signal.
After 90 min at 23° C. in the dark, AlphaLISA® signal was measured on an EnSpire plate reader (Excitation at 680 nm, Emission at 615 nm) from Perkin Elmer (Schwerzenbach, Switzerland).
On the technique in general: In Alpha technology, singlet oxygen from a donor bead excites a nearby acceptor bead.

The subject of assay [6] is NK92 cells. The assay can be described thus: IFN gamma secretion assay in NK92 cells (Example 10). In kind it is cell-based, human. The following applies: IFNγ secretion, 1 ng/ml IL-12. Here is the method:
The IFNγ-secretion stimulating activity of the unconjugated IL-18 variants and corresponding IL-18 immunocytokines was evaluated on NK92 cell line. The NK cell line NK-92 derived from a patient with lymphoma (ATCC, Cat #CRL-2407) was cultured in aMEM medium supplemented with 12.5% FCS, 12.5% horse serum (HS), 50 uM B-mercaptoEthanol, and 2 ng/ml of recombinant Human Interleukin-2 (IL-2).
On the day of experiment, cells were harvested and washed with aMEM medium without IL-2 and resuspended in medium (w/o IL-2) containing 1 ng/ml of recombinant human Interleukin-12 (SinoBiologicals, Cat #CT011-H08H). After counting, cells were seeded at 100 000 cells/well in a 384 well titer plate and incubated at 37° C./5% CO2. Sixteen 4-fold serial dilutions of IL-18 analytes were prepared in aMEM medium—1 ng/ml IL-12 and were added to the NK-92 cells. […]
After 16-20 h incubation at 37° C./5% CO2, 5 μl of supernatant were carefully transferred to a 384 microwells OPTIPlate (Perkin Elmer; Cat #6007270) and Interferon-gamma (IFNγ) levels measured using the Human IFNγ AlphaLISA Assay Kit (Perkin Elmer, Cat #AL217C). […] AlphaLisa signal was then measured on an Enspire plate reader (Perkin Elmer) using 680 and 615 nm as excitation and emission wavelengths respectively. Half maximal effective concentration (EC50) was calculated based on a variable slope, four parameter analysis using GraphPad PRISM software.

Assay [7] has as its system parental PD-1 negative KG-1 cells. The assay can be described thus: IFN gamma secretion assay in parental PD-1 negative KG-1 cells (Example 11). To be noted: IFNγ secretion. In kind it is cell-based, human. On the procedure:
(§4) The KG-1 cell line was used to generate a PD-1 expressing cell line and furthermore, to measure IFNγ release upon incubation with IL-18 variants and corresponding IL-18 immunocytokines.
(§5) IFNγ release was assessed in PD-1 positive (transduced) KG-1 cells, as well as in the parental PD-1 negative cells. 0.5×10^5 cells were seeded into a 96-well U-bottom plate in culture media (RPMI, 10% FBS, 1% L-Glutamine) and stimulated with IL-18 variants/ICs for 20-24 h. The test items were diluted to 100 nM in culture medium, followed by 7 10-fold serial dilutions. The lowest concentration assessed was […]. After incubation, IFNγ release was measured using the LEGENDplex custom human mix and match KIT (Biolegend LEGENDplex™ Human IFN-γ Capture Bead B5, 13X #740942, LEGENDplex™ HU Essential Immune Response Panel Detection Abs, #740931, LEGENDplex™ Buffer Set A #740368). To this end, cell culture supernatant was collected and diluted 1:1 with Assay Buffer. Fluorescence measurements were done with a Quanteon Flow Cytometer from Acea Biosciences. For analysis, MFI values (median fluorescence intensity) were exported and plotted against concentrations used. The EC50 values (half maximal effective concentration) were calculated based on a variable slope and four parameter analysis using GraphPad PRISM software version 9.

Assay [8] relates to PD-1 positive (transduced) KG-1 cells. Nature of the assay: IFN gamma secretion assay in PD-1 transduced KG-1 cells (Example 11). Type of assay: cell-based, human. Here is the method:
as §4
PD-1 expressing cell line generation: Briefly, KG-1 cells were transduced using lentiviral particles carrying the human PD-1 gene (PDCD1 NM_005018; Origene, CAT #: RC210364L3V) at a MOI (Multiplicity of Infection) of 30. Spinfection was performed at 1260 g during 90 min at 37° C. in the presence of 5 μg/ml of Polybrene and 10 mM of HEPES in complete culture media (RPMI, 10% FBS, 1% L-Glutamine). Five days after transduction, puromycin at a final concentration of 1 ug/ml was added to select for PD-1 positive cells. For culture maintenance, puromycin concentration was decreased to 0.5 μg/ml. Stable and homogenous expression of PD-1 was verified by surface staining (BD Pharmingen, #557860).
as §5

The target in assay [9] is T8, human IL-18 Binding Protein (IL-18BP) (Homo sapiens, UniProt O95998).
T8 sequence (O95998 31-194): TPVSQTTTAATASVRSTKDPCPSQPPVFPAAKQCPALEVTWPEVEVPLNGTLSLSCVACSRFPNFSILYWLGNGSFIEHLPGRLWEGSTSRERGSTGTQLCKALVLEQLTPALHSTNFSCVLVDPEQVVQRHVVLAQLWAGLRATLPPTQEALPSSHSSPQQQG
Nature of the assay: IL-18 Binding Protein alphaLISA assay (Example 12). To be noted: human IL-18BP. On the procedure:
Wild type or modified IL-18 polypeptides samples were diluted at 5.6 μM in a solution of 1× alphaLISA Immunoassay Buffer provided in the alphaLISA IFNγ Detection kit and were diluted applying 3-fold serial dilutions down to […] in 384 deep well plates. A solution of 10 ng/ml of human IL-18BP-His was prepared with 1×alphaLISA Immunoassay Buffer. IL-18/IL-18BP complex formation was performed incubating 30 μl of IL-18BP solution to IL-18 sample titrations for 1 h at 20° C. IL-18BP standard was prediluted from stock solution supplied in alphaLISA IFNγ Detection kit at 100 ng/ml with 1×alphaLISA Buffer and titration prepared from applying 2-fold serial dilutions. The following solutions were prepared: a 50 μg/ml solution of anti-IL-18BP alphaLISA Acceptor beads, a 5 nM solution of biotinylated anti-IL18BP antibody and a 80 μg/ml light-protected solution of Streptavidin Donor beads in 1×alphaLISA Immunoassay Buffer. […]
5 μl of Biotinylated anti-IL-18BP antibody were added, followed by a short centrifugation step at 150 g, and incubated for 60 minutes at 20° C. under shaking at 750 rpm. […] AlphaLisa signal was then measured on an Enspire plate reader (Perkin Elmer) using 680 and 615 nm as excitation and emission wavelengths respectively. […]

Assay [10] concerns NK92 cells. The assay can be described thus: Cellular IL-18 Binding Protein resistance assay in NK92 cells (Example 13). To be noted: IL-18BP-mediated inhibition of IFNγ secretion, IL-18 analyte 1 nM. Type of assay: cell-based, human. On the procedure: The NK cell line NK-92 derived from a patient with lymphoma (ATCC, Cat #CR^L-2407) was cultured in αMEM medium supplemented with 20% FCS-Glutamax, 25 μM B-mercaptoethanol, and 100 IU/ml of recombinant Human Interleukin-2 (IL-2). On the day of experiment, cells were harvested and washed with αMEM medium without IL-2. After counting, cells were seeded at 100 000 cells/well in a 384 well titer plate and incubated at 37° C./5% CO2. Sixteen 2-fold serial dilutions of Fc fused human IL-18 binding protein isoform a (IL-18BPa; R&D systems, Cat #119-BP) were prepared in αMEM medium—1 ng/ml IL-12 containing 2 nM of each IL-18 variants and were added to the NK-92 cells. Final IL-18 analytes concentration was 1 nM and final IL-18BPa concentrations ranged from to 566 nM down to 17 pM.
After 16-20 h incubation at 37° C./5% CO2, 5 μl of supernatant were carefully transferred to a 384 microwells OPTIplate (Perkin Elmer; Cat #6007270) and Interferon-gamma (IFNγ) levels measured using the Human IFNγ AlphaLISA Assay Kit (Perkin Elmer, Cat #AL217C). […] AlphaLisa signal was then measured on an Enspire plate reader (Perkin Elmer) using 680 and 615 nm as excitation and emission wavelengths respectively. Half maximal inhibitory concentration (IC50) was calculated based on a variable slope, four parameter analysis using GraphPad PRISM software.

T1 sequence (Q15116 25-288): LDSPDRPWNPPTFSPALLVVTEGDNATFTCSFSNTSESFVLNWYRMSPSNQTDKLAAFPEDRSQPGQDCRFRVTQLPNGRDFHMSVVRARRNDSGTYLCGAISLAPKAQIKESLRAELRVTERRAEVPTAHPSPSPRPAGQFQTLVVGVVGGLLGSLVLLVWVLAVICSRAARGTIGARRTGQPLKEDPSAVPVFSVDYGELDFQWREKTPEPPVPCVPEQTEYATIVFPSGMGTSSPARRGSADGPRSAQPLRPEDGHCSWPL
T3 sequence (P12314 16-374): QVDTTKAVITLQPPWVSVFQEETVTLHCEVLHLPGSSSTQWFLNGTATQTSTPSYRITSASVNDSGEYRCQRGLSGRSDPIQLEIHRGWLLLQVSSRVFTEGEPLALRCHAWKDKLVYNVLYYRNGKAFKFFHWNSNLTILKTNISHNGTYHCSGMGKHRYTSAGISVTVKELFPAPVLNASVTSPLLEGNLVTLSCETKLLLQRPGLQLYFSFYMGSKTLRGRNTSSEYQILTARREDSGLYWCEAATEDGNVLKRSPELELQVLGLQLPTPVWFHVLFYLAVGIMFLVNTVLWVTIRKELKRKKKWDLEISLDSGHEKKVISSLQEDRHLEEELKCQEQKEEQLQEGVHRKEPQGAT
T2 sequence (Q9NZQ7 19-290): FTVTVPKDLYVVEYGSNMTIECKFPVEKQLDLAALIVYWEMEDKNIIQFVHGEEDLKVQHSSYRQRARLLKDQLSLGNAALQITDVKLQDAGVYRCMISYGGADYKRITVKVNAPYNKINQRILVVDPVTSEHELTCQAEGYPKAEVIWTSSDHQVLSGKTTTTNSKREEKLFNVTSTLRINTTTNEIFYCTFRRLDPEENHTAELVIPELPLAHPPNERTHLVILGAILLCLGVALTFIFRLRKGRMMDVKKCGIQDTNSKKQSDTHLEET
T7 sequence (P55899 24-297 limits assumed): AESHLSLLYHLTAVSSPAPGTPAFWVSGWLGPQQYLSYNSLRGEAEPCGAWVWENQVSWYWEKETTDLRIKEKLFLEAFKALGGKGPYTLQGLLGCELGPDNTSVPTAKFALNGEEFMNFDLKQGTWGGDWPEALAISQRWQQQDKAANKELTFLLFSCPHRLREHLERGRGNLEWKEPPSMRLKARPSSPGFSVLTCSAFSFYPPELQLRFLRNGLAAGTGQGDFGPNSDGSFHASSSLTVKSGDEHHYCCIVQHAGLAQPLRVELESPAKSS
T7 sequence (P61769 21-119 partner): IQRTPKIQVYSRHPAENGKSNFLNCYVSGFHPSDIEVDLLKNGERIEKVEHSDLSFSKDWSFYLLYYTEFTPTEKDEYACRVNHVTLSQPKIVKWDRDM
T6 sequence (P08637 17-254): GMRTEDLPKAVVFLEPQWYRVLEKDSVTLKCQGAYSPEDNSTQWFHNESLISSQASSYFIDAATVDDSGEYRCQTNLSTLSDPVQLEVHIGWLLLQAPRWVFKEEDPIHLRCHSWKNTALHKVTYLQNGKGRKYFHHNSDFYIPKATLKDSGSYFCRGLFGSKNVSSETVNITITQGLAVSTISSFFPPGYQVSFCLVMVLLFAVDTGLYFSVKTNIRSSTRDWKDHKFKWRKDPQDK

Consider Atezolizumab/Tecentriq, for which the pKd with human PD-1/CD279 was under 7.00; with human PD-L1/B7-H1, 9.35; in assay [1], 8.04; in assay [2] it was 5.86; in [3], under 5.00; in [4] it was 6.45. The pKd in assay [5] is 8.19.

In the case of “SEQ ID NO: 31: IL-18 polypeptide: C38A, C76A, C127A”, the pEC50 is 9.99 in the assay with NK92 cells [6]; 9.83 in assay [7]; 9.87 in [8] (IFNγ secretion, PD-1 transduced KG-1). Also, in assay [8] (KG-1 cells), the “PD-1^neg/PD-1^pos EC50 ratio” value stood at 1.2. The pKd in assay [9] was 9.99. Moreover, in the assay on NK92 cells [10], the pIC50 is 9.55.

A word on the pKd: it is the Kd on a negative log10 scale, so that one unit is a factor of ten. Broadly, the pEC50 is the negative decadic logarithm of the EC50, by convention in mol/L. In general, pIC50 refers to the negative decadic logarithm of the IC50, by convention in mol/L.
